Test system: MS2 coat protein
Assay: apparent KD of MS2 coat protein; designed switch direction (-1 OFF switch, 1 ON switch): 1; higher = weaker reporter binding
Procedure, shortened: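 The buffer was Tris-HCl pH 7.5 with KCl, MgCl2, BSA, DTT, tRNA and Tween-20. In it, SNAP-549-labelled MS2 coat protein was titrated in doubling steps from 0.7 or 1.5 nM to 3 µM over chip-bound RNA switches transcribed by stalled E. coli RNA polymerase on Illumina chips. Apparent KD is the per-design median over clusters of curve fits to normalised fluorescence.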

[1] = input ligand: microRNA oligo, concentration not stated
[2] = Eterna round: R95, input ligand: FMN 200 uM
[3] = Eterna round: R95, input ligand: microRNA oligo, concentration not stated
[4] = Eterna round: R95, input ligand: none

## AGCCGAAGCGCAGGAUAUACAUGGAUACAUGAGGAUCACCCAUGUAGCAACACGUGGUAGUGAUUGUAGAAGGGUGCUCGGCGC [Omei SS(NG)2 Cv17] (Eterna round: R96, puzzle: Same State NG 2)
Input ligand: FMN 200 uM
  apparent KD of MS2 coat protein: 0.0274 µM
[1]
  apparent KD of MS2 coat protein: 0.0355 µM
Input ligand: none
  apparent KD of MS2 coat protein: 0.0546 µM

## GGAGCCGGCAGGCAGGAUAUUCAUAUUAAAACAUGAGGAUCACCCAUGUAGGCCAGAAGGCCUUGGGAGAAGGGCCAUCGGCUCG [Xeonanis - 13] (puzzle: Same State 2)
[2]
  apparent KD of MS2 coat protein: 0.0278 µM
[3]
  apparent KD of MS2 coat protein: 0.225 µM
[4]
  apparent KD of MS2 coat protein: 0.569 µM

## UGUUGUAUUACAGGAUAUCUAGGAUUUUUAUUUAGAGAAGGGUAUUCACAUGAGGAUCACCCAUGUAUAUACGAGGAAGUUGUG [JMF's solution 31] (Eterna round: R96, puzzle: Same State NG 1)
[1]
  apparent KD of MS2 coat protein: 0.0306 µM

## AACAAUCUAUCUGAGGAUAUCAUGAAAUAAACAUGAGGAUCACCCAUGUGCAGGAAAACUGCAUAUGAGAAGGCAGUUAGAUUGA [salish99_ss2_r3_053] (puzzle: Same State 2)
[2]
  apparent KD of MS2 coat protein: 0.0455 µM
[3]
  apparent KD of MS2 coat protein: 0.612 µM
[4]
  apparent KD of MS2 coat protein: 0.568 µM

## CAUCGUUUGAUAGGAUAUCGCUAUACAUGAGGAUCACCCAUGUUUACCACGCUGGUUUUUCAUACCGAGAAGGAUUCUGAUGAA [salish99_SSNG02_r04_011] (Eterna round: R96, puzzle: Same State NG 2)
Input ligand: FMN 200 uM
  apparent KD of MS2 coat protein: 0.0249 µM
[1]
  apparent KD of MS2 coat protein: 0.0297 µM
Input ligand: none
  apparent KD of MS2 coat protein: 0.0345 µM

## AGAAGACAUGAGGAUCACCCAUGUACAUAAUGAGGAGAAUGGGAGGAUAUGCAGAGAGAGAGGGAGCAGAAGGUCCAGUAUGAA [Default title] (Eterna round: R96, puzzle: Same State NG 3)
Input ligand: FMN 200 uM
  apparent KD of MS2 coat protein: 0.0444 µM
[1]
  apparent KD of MS2 coat protein: 0.0516 µM
Input ligand: none
  apparent KD of MS2 coat protein: 0.105 µM

## AGCUAUUAAUCAGGAUAUAGGGACAUGAGGAUCACCCAUGUAUAAAUGAUGAAAUGUGGUCACCUCUAGAAGGGAUUACUAACA [SameState NG2 #43] (Eterna round: R96, puzzle: Same State NG 2)
Input ligand: FMN 200 uM
  apparent KD of MS2 coat protein: 0.0427 µM
[1]
  apparent KD of MS2 coat protein: 0.029 µM
Input ligand: none
  apparent KD of MS2 coat protein: 0.0404 µM

## CGUUGUUCCUGAGGAUAUCAGUUGUUUGCAUUAUGAGAAGGCAGUACAUGAGGAUCACCCAUGUUGGGAUUUGAUAGAAUGACG [JR_SSNG1_Sub008] (Eterna round: R96, puzzle: Same State NG 1)
Input ligand: FMN 200 uM
  apparent KD of MS2 coat protein: 0.221 µM
[1]
  apparent KD of MS2 coat protein: 0.113 µM
Input ligand: none
  apparent KD of MS2 coat protein: 0.226 µM

## AUAUAACAUGAGGAUCACCCAUGUCACUAAAGUCGAGGAUAUGGGCAGGUUAUAUCCGAACCAGAAGGCGAAUUAU [SS1 Teenbexe 6] (Eterna round: R96, puzzle: Same State 1)
Input ligand: FMN 200 uM
  apparent KD of MS2 coat protein: 0.041 µM
[1]
  apparent KD of MS2 coat protein: 0.221 µM
Input ligand: none
  apparent KD of MS2 coat protein: 0.208 µM

## UACAUACGCGGAGGAUAUGGGCGAGGCGCAGAGGUCUGCACCAAAACAUGAGGAUCACCCAUGUCCCAGAAGGCCGCACAAACU [Onageenza] (Eterna round: R96, puzzle: Same State NG 2)
Input ligand: FMN 200 uM
  apparent KD of MS2 coat protein: 0.0199 µM
[1]
  apparent KD of MS2 coat protein: 0.0488 µM
Input ligand: none
  apparent KD of MS2 coat protein: 0.0719 µM

## UGCCUGAGUCGAGGAUAUUAUGGAUCCUUUAAUACAUGAGGAUCACCCAUGUAAUUAAUUAUACAUGAGAAGGCGACUCAGGCU [SSNG2/11-A3] (Eterna round: R96, puzzle: Same State NG 2)
[1]
  apparent KD of MS2 coat protein: 0.0589 µM

## AUAAAUAAACAUGAGGAUCACCCAUGUGUUAUAUAAGCAAAUAAAUAAAUAAAUAAAUAAAUAAAUAAAUAAAUAAA [RNA Sequence] (puzzle: Sensor for hsa-mir-208a version 2)
[2]
  apparent KD of MS2 coat protein: 0.0255 µM
[3]
  apparent KD of MS2 coat protein: 0.0261 µM
[4]
  apparent KD of MS2 coat protein: 0.0292 µM

## AUUUAACAAGCUUUUUGCUCGUCUUAUAAACAUGAGGAUCACCCAUGUAAUAGCGUGAGAGUAAAUAAUUAAAUAAU [JMF 89] (puzzle: Sensor for hsa-mir-208a)
[2]
  apparent KD of MS2 coat protein: 0.0133 µM
[3]
  apparent KD of MS2 coat protein: 0.0507 µM
[4]
  apparent KD of MS2 coat protein: 0.00991 µM

## AAACAUGAGCGAGGAUAUGCGGACGAUUACGCUGUAGAAGGCGCAUGUAAAACAACAUGAGGAUCACCCAUGUCAUGUACAUGU (Eterna round: R96, puzzle: Same State NG 1)
Input ligand: FMN 200 uM
  apparent KD of MS2 coat protein: 0.308 µM
[1]
  apparent KD of MS2 coat protein: 0.146 µM
Input ligand: none
  apparent KD of MS2 coat protein: 0.265 µM

## AACAAACGCGGAGGAUAUGGGCGAGGCGCGGAAGUCCACGCCAAAACAUGAGGAUCACCCAUGUCCCAGAAGGCCGCACAAAAU [Gererier] (Eterna round: R96, puzzle: Same State NG 2)
Input ligand: FMN 200 uM
  apparent KD of MS2 coat protein: 0.0163 µM
[1]
  apparent KD of MS2 coat protein: 0.0408 µM
Input ligand: none
  apparent KD of MS2 coat protein: 0.0491 µM
